Assay: yeast display, Sf9 membrane polyspecificity reagent, FACS + sequencing; frameworks hold sequencing errors
Summary of the method: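 In a synthetic yeast display library (Saccharomyces cerevisiae BJ5465), nanobody expression was induced with galactose for 36–48 hours. FACS gates were set low and high (top ~1%) using anti-HA fluorescence for expression and streptavidin fluorescence for binding of the Sf9 membrane reagent. Each polyreactivity label is drawn from the gate of origin.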

Row | Sequence | polyreactivity (PSR sort gate)
1 | QVQLVESGGGLVQAGGSLRLSCAASGIIFYTYAMGWYRQAPGKEREFVAGIRWSGSSTYYADSVKGRFTISRDNAKNTVYLQMNSLKPEDTAVYYCATGQPYGPLYSLGYGYWGQGTQVTVSS | high polyreactivity
2 | QVQLVESGGGLGQAGGSLRLSCAASGLTFLDYAMGWSRQAPGKERELVAAITSGGSTNYADSVKGRFTISRDKAKNTVYLQMNSLKPEDTAVYYFATDLEVSAYDYWGQGTQVTVSS | low polyreactivity
3 | QVQLVESGGGLVQAGGSLRLSCAASGSIFTYYAMGWYRQAPGKERELVAAISYSGGTTYYADSVKGRFTISRDNAKNTVYLQMNSLKPEDTAVYYCNVDADYESQWLSVGYDYWGQGTQVTVSS | low polyreactivity
4 | QVQLVESGGGLVQAGGSLRLSCAASGSTYDSNAMGWYRQAPGKERELVAAIDWSGGSTYYADSVKGRFTISRDNAKNTVYLQMNSLKPADTAVYYCAADDSSINYGDFDYWGQGTQVTVSS | low polyreactivity
5 | QVQLVESGGGLVQAGGTLRLSCAASGFIFTRYAMGWYSQAPGKERELVAAIKLSGTSTYYADSVKGRFTISRDNAKYTVYLQMNSLKPEDSAVYYCAATSSYIYPYGYWGQGTQVTVSS | high polyreactivity
6 | QVQLVESGGGLVQAGGSLRLSCAASGFTFSSYAMGWYRQAPGKERELVAAINWSGGSTYYADSVKGRFTISRDNAKNTVYLQMNSLKPEDTAVYYCATSVKDRYWVDYWGQGTQVTVSS | high polyreactivity
7 | QVQLVESGGGLVQAGGSLRLSCAASGTFKWYAMGWYRQAPGKERELVAVISSSGGTTYYADSVKGRFTISRDTAKITVYLQMNSLKPEDTAFYYCNAAKLFRYDYWGQGTQVTVSS | high polyreactivity
8 | QVQLEESGGGLVQAGGSLRLSCAASGSIFPWYAMGWYRQAPGKERELVAVITSGGSTNYADSVKGRFTISRANAKNTVYLQMNSLYPEDTAVYYCYADAPLDDFSPRFEVSTEHSWGQGTQVTVSS | low polyreactivity
9 | QVQLVESGGGLVQAGGSLRLSCAASGFTFVSYAMGWYRQAPGKERELVAAISKRGGSTSYADSVKGRFTISRDNAKNTVYLQMNSLKPEDTAVYYCNKRSYAWSPHVDYWGQGTQVTVSS | high polyreactivity
10 | QVQLVESGGGLVQAGGSLRLSCAASGFIFSYYVMGWYRQAPGKERELVAAINESGGRTYYADSVKGRFTISRDNAKNTVYLQMNSLKPEDTAVYYCATIPGYVYYWQYKYDYWGQGTQVTVSS | low polyreactivity
11 | QVQLVESGGGLVQAGGSLRLSCAASGRIFRVYAMGWYRQAPGKETELVAAISRTGGSTYYADSVKGRFTISRDNAKNTVYLQMNSLKPEDTAVYYCAALVNGNFPTVDYWGQGTQVTVSS | high polyreactivity
12 | QVQLVESGRGLVQAGGSLRISCAASGFTFSRYAMGWYRQAPGKERELVAAISLRGGRTYYADSVKGRFTISRDNAKNTVYLQMNSLKPEDTAVYYCNRDYRGPYYYWGQGTQVTVSS | high polyreactivity
13 | QVQLVESGGGLVQAGGSLSLICAASGFTFVDYAMGWYRQAPGKERELVAAITVSGDSTYYADSVKGRFTISRDIAKNTVYFQMNSLKPEDTAVYYCAADPGYYDGGYWGQGTQVTVSS | low polyreactivity
14 | QVQLVESGGGLVQAGGSLRLSCAACGLTFGGYVMGWYRQAPGKVRELVAAISGSGGRTYYADSVKGRFTISRDNAKNTVYLQMNSLKPEDTAVYYCARPSRGPPRGYYWGKGTQVTVSS | high polyreactivity
15 | QLQLVESGGGLVQAGGSLRLSCAASGNTFFPYTMGWYRQAPGKERELVAAITWSGVSTYYADSVKGRFTISRDNAKYTVDLQMNSLKPEDTAVYYCAAPSTGTYGSDYWGQGTQVTVSS | high polyreactivity
16 | QVQLVESGGGLVQAGGSLRLSCAASGFLFPKNAMGWSRQAPGTEMEWVAAISSGGARTYYADSVKGRFTISRDNAQNSVYEQMNSLKPEDTAVYYCAARTSPFWRGGGLDYWGQGTQVTVSS | high polyreactivity
17 | QVQLVESGGGLVQAGGSLRLTCAASGRIFYDKSMGWYRQSPGKERELVAAIRRSGGDTYYADSVKGRFTISRDIAKNTVYLQMNSLKTVDTAVYYCADTYSDYGRRYGYWGQGTLVTVSS | high polyreactivity
18 | QVQLQESGGGLEQAGVSLRLSCAASGYISDIGTMGWYRQAPGKEREFVATIVVGSTTNYADSVKGRFTISRDNAKNTVYLQPESGRYRGVLLRGWLLAVGIFTYWGQGTQETVSS | low polyreactivity
19 | QVQLVESGGGLVQAGGSLRLSCAASGFTFWYYAMGWYRQAPGKERELVAAISWSGVSTYYADSVKGRFTISRDNAKNTVYLQMNSLKPEDTAVYYCNRRARSYADDYWGQGTQVTVSS | high polyreactivity
20 | QVQLVESGGGLVQAGGSLRLSCAASGSTFPLYAMGWYRQAPGKERELVAAITSGGGNTYYADSVKGRFTISRDNAKNTVYLQMNRLKPEDTAVYYCAAVGGYKSYYSYEYDYWGQGTQVTVSS | low polyreactivity
21 | QVQLVESGGGIVQAGGSLRLSCAASGRTFEQNVMRWYRQAPGKERELVAAITTGGSTNYADSVKGRFTISRDNAKNTVYLQMNSLKPEDTAVYYCAADRYLGGDYDYWGQGTQVTVSS | low polyreactivity
22 | QVQLVESGGGLVQAGGSLRLSCAASGSNFGEYAMGWYIQAPGKERELVAAISYRGGSTYYADSVKGRFTISRDNAKNTVYLQMNSLKPEDTAVYYCNRDRRRRGAYGRPGGDHWGQGTQVTVSS | high polyreactivity

Row | Sequence | polyreactivity (PSR sort gate)
23 | QVQLVESGGGLVQAGGRLRLSCAASGSTIRTYARGWYRQAPGKERELVAAITNSDGSTYYADSVKGRFTISRDNAKNTVYLQMYSLKPEDTAVYYCAAYYYPLGYDYWGQGTQVTVSS | low polyreactivity
24 | QVQLVESGGGLVQAGGSLRLSCAASGFIFVYYVMGWYRTAPGKERELVAAITQSGGSTYYADSVKGRFTISRDNAKNTVYLQMNSLKPEDTAVYYCAAYRRTTGGGYDYWGQGTQVTVSS | high polyreactivity
25 | QVQLVESGGGLVQAGGSLRLSCAGSGSTFKYYAMGWYRQAPGKARELVAAIRTSGGRTYYADSVKGRFTISRDNAKNTVYLPMNSLKPEDTAVYYCNASSTQFGQRYEYWGQGTQVTVSS | high polyreactivity
26 | QVQLVESGGGLVQAGGSLRLSCAASGRIFTYYGMGWYRQAPGKERELVAAISWSGGSTYYADSVKGRFTISRDNAKNTVYLQMNSLKPVDTAVYYCNAASRYGGDYWGQGTQVTVSS | high polyreactivity
27 | QVQLVESGGGLVKAGGSLRLSCAASGRIFDYNAMGWYRQAPGKERELVAAISYSGGGTYYADSVKGRFTISRDYAKNSVYFQMNSLKPEDTAVYYCAKPYYQYYYISYDYWGQGTQVTVSS | low polyreactivity
28 | QVQLVESGGGLVQAGGSLRLSCAASGLIFYRYAMGWYRQAPGKERELVAAISSSGVSTYYADSVKGRFTISRDNAKNTVYLQMNSLIPEDTAVYYCAADVGSRSYSYDYWGQGTQVTVSS | low polyreactivity
29 | QVQLVESGGGLVQAGGSLRLSCAASGRIFYVYAMGWYRQAPGKERELVATISWSAGITYYADSVKGRFTISRDNAKNTVYLQMNSMKPEDTAVYYCAKVGRYTYSGQYDYWGQGTQVTVSS | high polyreactivity
30 | QVQLVESGGGLVQAGGSLRLSCAASGITFYFYAMGWYRQAPGKERELVASITSSGSTDYADSVKGRFTISRDNAKNTVYLQMNSLKPEDTAVYYCAADVQNHFYSFGDERGFPFDYWGQGTQVTVSS | low polyreactivity
31 | QVQLVESGGGLVQAGGSLRLSCAASGRIFVRYAMGWYRQAPGKESEFVADIDGGGGRTYADSVKGRFTISRDNAKNTVYLLMNSLKPEDTAVYYCNAYVYSIHWCDLYWSEYDYWGQGTQVTVSS | high polyreactivity
32 | QVQLVESGGGLVQAGGSLRLSCAASGSIFYVYAMGWYRQAPGKERELVAAITSSGDTTYYADSVKGRFTISRDNAKNTVYLQMNSLKPEDTAVYYCAKVFGPTDYLTGTFKGDYWGQGTQVTVSS | low polyreactivity
33 | QVQLVESGGGLVQAGGSLRLSCAASGITFPQNAMGWYRQAPGKERELVATIDNVGSTNYADSVKGRFTISRDNAKNTVYLQMNSLKPEDTAGYYCAKDYDWTLDYDGYPGYDYWGQGTQVTVSS | high polyreactivity
34 | QVQLVESGGGLVQAGGSLRLSCAASGFTFTSYVMGWSRQAPGKEREFVAAITRSAGGTYYADSVKGRFTISRDNAKNTVYLQMNSLKPEDTAVYYCAAVYRSGSRYYLGWYNYWGQGTQVTVSS | high polyreactivity
35 | QVKLVESGGGLVQAGGSLRLSSADSGFIFRRYAMGWYRQAPGKERELVAAINYSGGSTYYADSVKGRFTISRDHAKNTVYLQMNSPKPEYTAVYYCNAYGLRYYEYDYWGQGTQVTVSS | low polyreactivity
36 | QVQLVESGGGLVQAGGSLRLSSAASGSNFPPNAMGWYRQAPGKEREFVASITSSGGITNYADSVKGRFTISRDNAKNTVYLQMNSLKPEDTAVYYCAAKYYGGTRFRPYGYWGQGTQVTVSS | high polyreactivity
37 | QVQLQESGGGLVQAGGSLRLSCAASSNNSTLDVKGWYRQAPGKEREFVASIGSGGITNYADSVKGRFTISRDNAKNTVYLQMNSLKPEDTAVYYCAVLNQAYTDLIYWGQGTQVTVSS | high polyreactivity
38 | QVQLVESGGGLVQAGGSLRLSCAASGIILYRNVLGWYRQAPGKERELVASINRGSDSTYYADSVKGRFTISRDNEKNTVYLHMNSLKPEDTAVYYCAAVYVYGVEMDYWGQGTQVTVSS | low polyreactivity
39 | QVQLVESGGGLVQAGGSLRLSCAASGSIFNSYAMGWYIQAPGKERELFADITSSGGSTYYADSVKGRFTISRDNAKNTVYLQMNCLKPEDTAVYYCAASSPAFYGLRYNYWGQGTQVTVSS | low polyreactivity
40 | QVQLVESGGGLVQAGGSLRLSCAASGLIFPRYGMVWYRKAPGKERELVAAISWSGGSTYYADSVKGRFTISRDNAKNTVYLQMNSLKPEDTAVYYCAVLSNRGVYGSDYWGQGTQVTVSS | high polyreactivity
41 | QVQLVESGGGLVHAGGSLRLSCAASGSTFGRYTMGWYRQAPGKERELVAAISYSSGRTYYADSVKGRFTISRDNGKNTVYLQMNSLKAEDSAVYYCAAVSRGRGEYDYWGQGTQVTVSS | high polyreactivity
42 | QVQLVESGGGLVQAGGSLRLSCAASGFTFFYYDMGWYRQAPGKERELVADITTGGSTYYADSVKGRFTISRDNAKNTVYLQMNSLKPEDTAVYYCAALLYVSNSYRWWPWDGEDYWGQGTQVTVSS | high polyreactivity
43 | QVQLVESGGGLVQAGGSLRLSCAASGRIFKSYAMGWYRQAPGKERELVATISISGGSTYYADSVKGRFTISRDNEKNTVYLQMNSLKPEDNAVYYCNVDFPITEYYYWGNGTQVTVSS | low polyreactivity

Source: the nanobody polyreactivity screen of Harvey et al. (2022)
